According to paper PMC6122992:

Molecular target: rhodamine-labeled cyclic β-hairpin peptide (human)
Experiment: fluorescence polarisation

Kd [µM] | Substance
46.8 | recombinant Ydj1 (from UniProt P25491 1-409) (natural protein)
3.5 | recombinant Ssa1 (from UniProt P10591 1-642) (natural protein)
